{"source": "paper PMC10082787", "about": "“The IgG4 hinge with CD28 transmembrane domain improves VHH-based CAR T cells targeting a membrane-distal epitope of GPC1 in pancreatic cancer” (Nature Communications, 2023)", "binders": {"B1": {"name": "HM2 mouse monoclonal antibody (antibody, V domains shown)", "VH": "EVQLQQSGAELVRPGASVKLSCTASGFNIKDDYMHWVKQRPEQGLEWIGWIDPENGDTEYASKFQGKATITADTSSNTAYLQLSSLTSEDTAVYYCTRSSVGYWGQGTTLTVSS", "VL": "DVVMTQTPLSLPVSLGDQASISCRSSQSLVHSNGNTYLHWYLQKPGQSPKLLIYKVSNRFSGVPDRFSGSGSGTYFTLKISRVEAEDLGVYFCSQRTHVPYTFGGGTKLEIK", "notes": "heavy chain of mouse mAb HM2; light chain of mouse mAb HM2; Raised by immunising mice with the C-lobe region of GPC1; also called HM2 mAb; HM2 clone; source: mouse hybridoma; in supernatant and purified"}, "B2": {"name": "D4 dromedary camel VHH nanobody (VHH)", "VHH": "QVQLVESGGGLVQPGGSLRLSCVASGYSYSIGYMAWFRQAPGKERAWVASRYTGDGGAVFDDAVKGRFTTSQESAGNTFDLQMDSLKPEDTAMYYCAAKGPGFGRWEYWGRGTQVTVSS", "notes": "D4 VHH; His tag used to load the Ni-NTA biosensor; FLAG used for detection in ELISA and flow cytometry; also called D4 antibody; D4 VHH"}, "B3": {"name": "GPC1 protein (negative stain EM) (natural protein)", "chain": "DPASKSRSCGEVRQIYGAKGFSLSDVPQAEISGEHLRICPQGYTCCTSEMEENLANRSHAELETALRDSSRVLQAMLATQLRSFDDHFQHLLNDSERTLQATFPGAFGELYTQNARAFRDLYSELRLYYRGANLHLEETLAEFWARLLERLFKQLHPQLLLPDDYLDCLGKQAEALRPFGEAPRELRLRATRAFVAARSFVQGLGVASDVVRKVAQVPLGPECSRAVMKLVYCAHCLGVPGARPCPDYCRNVLKGCLANQADLDAEWRNLLDSMVLITDKFWGTSGVESVIGSVHTWLAEAINALQDNRDTLTAKVIQGCGNPKVNPQGPGPEEKRRRGKLAPRERPPSGTLEKLVSEAKAQLRDVQDFWISLPGTLCSEKMALSTASDDRCWNGMARGRYLPEVMGDGLANQINNPEVEVDITKPDMTIRQQIMQLKIMTNRLRSAYNGNDVDFQDASDDGSGSGSGDGCLDDLCSRKVSRKSSSSRTPLTHALPGLSEQEGQKTS", "notes": "glypican-1 protein mixed 1:1 with HM2 Fab or D4-LR for negative stain EM; It may be the His-tagged or the hFc-fused protein of the other experiments"}, "B4": {"name": "recombinant human GPC1-hFc protein (Fc fusion)", "chain": "B3 chain", "notes": "glypican-1, human, fused to human Fc"}, "B5": {"name": "clone 1–12-IgG4H-CD28TM CAR (other)", "VH": "AVTLDESGGGLQTPGRALSLVCKASGFTFSRYAMYWVRQAPGKGLEFVAGIGNTGRYTGYGSAVKGRATISRDSGQSTVRLQLNNLRAEDTGNYYCAKSVSPYCCDAADIDAWGHGTEVIVST", "VL": "ALTQPASVSANPGETVKITCSGGSSGYAYGWYQQKSPGSAPVTLLYSNNNRPSDIPSRFSGSKSGSTATLTITGVQAEDEAVYFCGSVDSSSYAGIFGAGTTLTV", "notes": "scFv of the anti-GPC1 mAb clone 1–12; CD28 transmembrane domain (CD28TM); 4-1BB costimulatory domain; intracellular CD3ζ; also called clone 1–12 CAR; source: human T cells from PBMCs, lentivirally transduced; on cells"}}, "key": {"GPC1 peptide 53": {"molecular_target": "T1, GPC1 peptide 53 (Homo sapiens, UniProt P35052)", "T1 construct": "peptide no; 53 of 53 overlapping GPC1 peptides, 18 amino acids long, 9 overlapped with the adjacent peptide; source: synthetic peptide (Genscript)", "T1 chain": "DGCLDDLCSRKVSRKSSS", "assay": "ELISA; 53 overlapping 18-mer GPC1 peptides coated at 5 μg/ml in PBS overnight; 1 μg/ml of HM2 or D4 added", "conditions": "both partners purified"}, "His-tagged GPC1 protein": {"molecular_target": "T2, His-tagged GPC1 protein (Homo sapiens, UniProt P35052)", "T2 construct": "glypican-1, human, His-tagged protein immobilised on the Ni-NTA biosensor; also called human GPC1", "T2 sequence (P35052 whole entry, looked up)": "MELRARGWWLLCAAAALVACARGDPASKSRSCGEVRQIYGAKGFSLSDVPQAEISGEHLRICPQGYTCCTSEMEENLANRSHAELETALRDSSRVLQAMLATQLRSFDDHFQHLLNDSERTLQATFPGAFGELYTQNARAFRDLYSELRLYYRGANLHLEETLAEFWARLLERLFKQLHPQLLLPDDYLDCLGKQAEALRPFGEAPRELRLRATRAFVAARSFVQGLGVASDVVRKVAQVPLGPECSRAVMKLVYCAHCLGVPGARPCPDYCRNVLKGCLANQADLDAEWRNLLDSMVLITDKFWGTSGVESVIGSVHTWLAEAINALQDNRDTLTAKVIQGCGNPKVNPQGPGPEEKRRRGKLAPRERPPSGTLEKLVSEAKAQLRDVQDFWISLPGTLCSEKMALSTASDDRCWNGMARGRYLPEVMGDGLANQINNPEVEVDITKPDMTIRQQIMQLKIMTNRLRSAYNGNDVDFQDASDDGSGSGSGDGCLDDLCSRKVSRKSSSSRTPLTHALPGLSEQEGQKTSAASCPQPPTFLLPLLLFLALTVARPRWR", "assay": "BLI; Octet RED96; His-tagged GPC1 immobilised on Ni-NTA biosensor, HM2 in solution; association 600 s, dissociation 1800 s", "conditions": "both partners purified"}, "[1]": {"molecular_target": "T3, human glypican-4 (GPC4), recombinant protein (Homo sapiens, UniProt O75487)", "T3 construct": "glypican-4, human, recombinant protein coated on ELISA plates; source: bought: R&D Systems", "T3 sequence (O75487 19-529)": "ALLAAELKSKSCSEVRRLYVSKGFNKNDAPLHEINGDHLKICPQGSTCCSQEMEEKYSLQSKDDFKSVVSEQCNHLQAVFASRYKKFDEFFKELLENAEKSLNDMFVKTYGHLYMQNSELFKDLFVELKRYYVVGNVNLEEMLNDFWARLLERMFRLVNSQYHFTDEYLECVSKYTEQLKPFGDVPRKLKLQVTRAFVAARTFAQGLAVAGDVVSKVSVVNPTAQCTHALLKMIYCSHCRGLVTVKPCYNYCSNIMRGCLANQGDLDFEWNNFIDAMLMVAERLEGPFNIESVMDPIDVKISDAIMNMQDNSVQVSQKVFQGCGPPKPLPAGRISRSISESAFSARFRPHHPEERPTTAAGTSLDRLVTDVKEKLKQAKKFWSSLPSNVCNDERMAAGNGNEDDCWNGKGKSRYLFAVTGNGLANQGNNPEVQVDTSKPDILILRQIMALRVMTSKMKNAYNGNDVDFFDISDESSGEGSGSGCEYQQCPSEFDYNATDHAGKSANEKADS", "assay": "ELISA; plates coated with human GPC1 through GPC6; mouse hybridoma supernatant with 1 μg/ml of each mAb; detected with goat anti-mouse IgG-HRP", "conditions": "one partner purified"}, "[2]": {"molecular_target": "T4, human glypican-6 (GPC6), recombinant protein (Homo sapiens (Human)., UniProt Q9Y625)", "T4 construct": "glypican-6, human, recombinant protein coated on ELISA plates; source: bought: R&D Systems", "T4 sequence (Q9Y625 24-529)": "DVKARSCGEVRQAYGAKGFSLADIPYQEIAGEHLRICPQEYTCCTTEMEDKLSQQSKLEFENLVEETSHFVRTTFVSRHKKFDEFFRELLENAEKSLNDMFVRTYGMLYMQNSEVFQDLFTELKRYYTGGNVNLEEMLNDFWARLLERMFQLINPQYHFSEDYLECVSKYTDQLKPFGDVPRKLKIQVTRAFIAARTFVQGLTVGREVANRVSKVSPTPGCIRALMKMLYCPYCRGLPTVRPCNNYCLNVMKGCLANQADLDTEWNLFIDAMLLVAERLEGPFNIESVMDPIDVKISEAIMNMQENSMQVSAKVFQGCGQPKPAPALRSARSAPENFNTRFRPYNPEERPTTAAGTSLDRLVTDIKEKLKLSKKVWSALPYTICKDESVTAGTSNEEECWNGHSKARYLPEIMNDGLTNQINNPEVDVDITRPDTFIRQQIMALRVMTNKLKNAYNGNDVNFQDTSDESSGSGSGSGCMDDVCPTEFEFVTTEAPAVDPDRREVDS", "assay": "ELISA; plates coated with human GPC1 through GPC6; mouse hybridoma supernatant with 1 μg/ml of each mAb; detected with goat anti-mouse IgG-HRP", "conditions": "one partner purified"}, "[3]": {"molecular_target": "T5, human glypican-3 (GPC3), recombinant protein (Homo sapiens, UniProt P51654)", "T5 construct": "glypican-3, human, recombinant protein coated on ELISA plates; source: bought: R&D Systems", "T5 sequence (P51654 25-580)": "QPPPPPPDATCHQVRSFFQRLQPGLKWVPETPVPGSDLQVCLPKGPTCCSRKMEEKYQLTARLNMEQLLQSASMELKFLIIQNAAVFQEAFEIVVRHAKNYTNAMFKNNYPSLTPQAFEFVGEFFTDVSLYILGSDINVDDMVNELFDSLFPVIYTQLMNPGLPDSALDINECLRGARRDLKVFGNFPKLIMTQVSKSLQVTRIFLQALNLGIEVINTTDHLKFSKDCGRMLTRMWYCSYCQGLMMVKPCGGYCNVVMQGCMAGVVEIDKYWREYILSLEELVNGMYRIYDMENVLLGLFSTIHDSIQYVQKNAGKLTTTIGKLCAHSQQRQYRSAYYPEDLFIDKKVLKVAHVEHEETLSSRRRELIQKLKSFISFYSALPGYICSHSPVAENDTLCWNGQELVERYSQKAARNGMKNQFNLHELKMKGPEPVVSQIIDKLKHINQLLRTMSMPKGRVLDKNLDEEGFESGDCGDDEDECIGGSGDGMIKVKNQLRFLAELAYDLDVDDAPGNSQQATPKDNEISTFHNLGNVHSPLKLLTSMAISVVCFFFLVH", "assay": "ELISA; plates coated with human GPC1 through GPC6; mouse hybridoma supernatant with 1 μg/ml of each mAb; detected with goat anti-mouse IgG-HRP", "conditions": "one partner purified"}, "[4]": {"molecular_target": "T6, human glypican-2 (GPC2), recombinant protein (Homo sapiens (Human)., UniProt Q8N158)", "T6 construct": "glypican-2, human, recombinant protein coated on ELISA plates; source: bought: R&D Systems", "T6 sequence (Q8N158 24-554)": "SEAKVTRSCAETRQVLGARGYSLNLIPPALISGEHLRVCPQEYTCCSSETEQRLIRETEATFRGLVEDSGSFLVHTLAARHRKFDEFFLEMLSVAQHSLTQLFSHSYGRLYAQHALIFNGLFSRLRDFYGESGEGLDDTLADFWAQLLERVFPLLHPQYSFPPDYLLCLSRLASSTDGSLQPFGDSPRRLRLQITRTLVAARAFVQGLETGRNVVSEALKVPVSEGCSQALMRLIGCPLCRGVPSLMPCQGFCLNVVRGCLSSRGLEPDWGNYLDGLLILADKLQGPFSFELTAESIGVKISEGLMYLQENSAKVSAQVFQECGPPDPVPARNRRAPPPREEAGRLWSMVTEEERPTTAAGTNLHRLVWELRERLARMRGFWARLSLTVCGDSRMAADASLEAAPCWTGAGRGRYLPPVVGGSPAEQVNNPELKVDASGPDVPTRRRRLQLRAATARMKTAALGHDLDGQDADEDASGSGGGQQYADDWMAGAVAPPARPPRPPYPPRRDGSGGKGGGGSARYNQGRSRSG", "assay": "ELISA; plates coated with human GPC1 through GPC6; mouse hybridoma supernatant with 1 μg/ml of each mAb; detected with goat anti-mouse IgG-HRP", "conditions": "one partner purified"}, "[5]": {"molecular_target": "T7, human glypican-5 (GPC5), recombinant protein (Homo sapiens, UniProt P78333)", "T7 construct": "glypican-5, human, recombinant protein coated on ELISA plates; source: bought: R&D Systems", "T7 sequence (P78333 25-572)": "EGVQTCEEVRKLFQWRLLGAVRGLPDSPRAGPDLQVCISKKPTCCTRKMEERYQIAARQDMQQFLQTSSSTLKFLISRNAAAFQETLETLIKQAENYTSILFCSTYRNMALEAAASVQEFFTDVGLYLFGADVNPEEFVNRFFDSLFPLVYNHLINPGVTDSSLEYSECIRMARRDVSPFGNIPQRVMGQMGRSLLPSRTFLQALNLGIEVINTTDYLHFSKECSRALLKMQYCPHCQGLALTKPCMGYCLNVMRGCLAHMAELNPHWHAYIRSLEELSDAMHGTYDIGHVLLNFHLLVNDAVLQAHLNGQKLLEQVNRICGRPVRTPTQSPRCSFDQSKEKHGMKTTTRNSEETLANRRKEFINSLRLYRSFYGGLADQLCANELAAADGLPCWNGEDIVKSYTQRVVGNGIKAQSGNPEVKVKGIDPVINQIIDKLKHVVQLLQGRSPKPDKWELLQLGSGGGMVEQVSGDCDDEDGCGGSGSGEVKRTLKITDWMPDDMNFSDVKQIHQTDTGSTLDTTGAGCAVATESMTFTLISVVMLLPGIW", "assay": "ELISA; plates coated with human GPC1 through GPC6; mouse hybridoma supernatant with 1 μg/ml of each mAb; detected with goat anti-mouse IgG-HRP", "conditions": "one partner purified"}, "[6]": {"molecular_target": "B4", "assay": "BLI; Octet RED96; His-tagged D4 loaded on Ni-NTA biosensor, serially diluted human GPC1-hFc in solution", "conditions": "both partners purified"}, "GPC1 peptide 14": {"molecular_target": "T8, GPC1 peptide 14 (Homo sapiens, UniProt P35052)", "T8 construct": "peptide no; 14 of 53 overlapping GPC1 peptides, 18 amino acids long, 9 overlapped with the adjacent peptide; source: synthetic peptide (Genscript)", "T8 chain": "FRDLYSELRLYYRGANLH", "assay": "ELISA; 53 overlapping 18-mer GPC1 peptides coated at 5 μg/ml in PBS overnight; 1 μg/ml of HM2 or D4 added", "conditions": "both partners purified"}, "GPC1 peptide 15": {"molecular_target": "T9, GPC1 peptide 15 (Homo sapiens, UniProt P35052)", "T9 construct": "peptide no; 15 of 53 overlapping GPC1 peptides, 18 amino acids long, 9 overlapped with the adjacent peptide; source: synthetic peptide (Genscript)", "T9 chain": "LYYRGANLHLEETLAEFW", "assay": "ELISA; 53 overlapping 18-mer GPC1 peptides coated at 5 μg/ml in PBS overnight; 1 μg/ml of HM2 or D4 added", "conditions": "both partners purified"}, "[7]": {"molecular_target": "T3, human glypican-4 (GPC4), recombinant …", "assay": "ELISA; D4 nanobody at 1 μg/ml on human GPC1 through GPC6 and mouse GPC1 proteins; detected with anti-FLAG-HRP; the legend calls it monoclonal phage ELISA", "conditions": "both partners purified"}, "[8]": {"molecular_target": "T4, human glypican-6 (GPC6), recombinant …", "assay": "ELISA; D4 nanobody at 1 μg/ml on human GPC1 through GPC6 and mouse GPC1 proteins; detected with anti-FLAG-HRP; the legend calls it monoclonal phage ELISA", "conditions": "both partners purified"}, "[9]": {"molecular_target": "T5, human glypican-3 (GPC3), recombinant …", "assay": "ELISA; D4 nanobody at 1 μg/ml on human GPC1 through GPC6 and mouse GPC1 proteins; detected with anti-FLAG-HRP; the legend calls it monoclonal phage ELISA", "conditions": "both partners purified"}, "[10]": {"molecular_target": "T6, human glypican-2 (GPC2), recombinant …", "assay": "ELISA; D4 nanobody at 1 μg/ml on human GPC1 through GPC6 and mouse GPC1 proteins; detected with anti-FLAG-HRP; the legend calls it monoclonal phage ELISA", "conditions": "both partners purified"}, "[11]": {"molecular_target": "T7, human glypican-5 (GPC5), recombinant …", "assay": "ELISA; D4 nanobody at 1 μg/ml on human GPC1 through GPC6 and mouse GPC1 proteins; detected with anti-FLAG-HRP; the legend calls it monoclonal phage ELISA", "conditions": "both partners purified"}, "[12]": {"molecular_target": "T10, mouse glypican-1 (GPC1) protein (Mus musculus (Mouse)., UniProt Q9QZF2)", "T10 construct": "glypican-1, mouse, protein used in the ELISA of D4; also called mouse GPC1; murine GPC1", "assay": "ELISA; D4 nanobody at 1 μg/ml on human GPC1 through GPC6 and mouse GPC1 proteins; detected with anti-FLAG-HRP; the legend calls it monoclonal phage ELISA", "conditions": "both partners purified"}, "D4-LR immunotoxin": {"molecular_target": "D4-LR immunotoxin (Camelus dromedarius | Pseudomonas)", "assay": "negative stain EM", "conditions": "both partners purified"}, "D4-IgG4H-CD8TM CAR": {"molecular_target": "T11, D4-IgG4H-CD8TM CAR (Camelus dromedarius | human | )", "T11 construct": "CD8 transmembrane region (CD8TM); 4-1BB costimulatory domain; intracellular CD3ζ; Dimer by non-reducing western blot; also called pMH382; source: human T cells from PBMCs, lentivirally transduced; on cells and in lysate", "assay": "flow cytometry on cells; CAR T cells stained with GPC1-hFc at 5 μg/ml and goat anti-human IgG-PE", "conditions": "one partner purified"}, "D4-CD8H-CD28TM CAR": {"molecular_target": "T12, D4-CD8H-CD28TM CAR (Camelus dromedarius | )", "T12 construct": "CD8 hinge (CD8H), 45 amino acids; CD28 transmembrane domain (CD28TM); 4-1BB costimulatory domain; intracellular CD3ζ; also called pMH402; source: human T cells from PBMCs, lentivirally transduced; on cells and in lysate", "assay": "flow cytometry on cells; CAR T cells stained with GPC1-hFc at 5 μg/ml and goat anti-human IgG-PE", "conditions": "one partner purified"}, "D4-IgG4H-CD28TM CAR": {"molecular_target": "T13, D4-IgG4H-CD28TM CAR (Camelus dromedarius | human | )", "T13 construct": "CD28 transmembrane domain (CD28TM); 4-1BB costimulatory domain; intracellular CD3ζ; Dimer by non-reducing western blot; also called D4-IgG4H only CAR; D4-IgG4H CAR; source: human T cells from PBMCs, lentivirally transduced; on cells and in lysate", "assay": "flow cytometry on cells; CAR T cells stained with GPC1-hFc at 5 μg/ml and goat anti-human IgG-PE", "conditions": "one partner purified"}, "D4-CD8H-CD8TM CAR": {"molecular_target": "T14, D4-CD8H-CD8TM CAR (Camelus dromedarius | )", "T14 construct": "CD8 hinge (CD8H), 45 amino acids; CD8 transmembrane region (CD8TM); 4-1BB costimulatory domain; intracellular CD3ζ; also called D4 CAR; pMH305; source: human T cells from PBMCs, lentivirally transduced; on cells and in lysate", "assay": "flow cytometry on cells; CAR T cells stained with GPC1-hFc at 5 μg/ml and goat anti-human IgG-PE", "conditions": "one partner purified"}, "[13]": {"molecular_target": "B4", "assay": "flow cytometry on cells; CAR T cells stained with GPC1-hFc at 5 μg/ml and goat anti-human IgG-PE", "conditions": "one partner purified"}}}
{"binder": "B1", "values": [{"measurement": "binding result", "setting": "GPC1 peptide 53", "result": "binds"}, {"measurement": "Kd", "setting": "His-tagged GPC1 protein", "result": 400, "unit": "pM"}, {"measurement": "binding result", "setting": "[1]", "result": "no binding (tested: 1 μg/ml)"}, {"measurement": "binding result", "setting": "[2]", "result": "no binding (tested: 1 μg/ml)"}, {"measurement": "binding result", "setting": "[3]", "result": "no binding (tested: 1 μg/ml)"}, {"measurement": "binding result", "setting": "[4]", "result": "no binding (tested: 1 μg/ml)"}, {"measurement": "binding result", "setting": "[5]", "result": "no binding (tested: 1 μg/ml)"}]}
{"binder": "B2", "values": [{"measurement": "Kd", "setting": "[6]", "result": 700, "unit": "pM"}, {"measurement": "binding result", "setting": "GPC1 peptide 14", "result": "binds"}, {"measurement": "binding result", "setting": "GPC1 peptide 15", "result": "binds"}, {"measurement": "binding result", "setting": "[7]", "result": "no binding (tested: 1 μg/ml)"}, {"measurement": "binding result", "setting": "[8]", "result": "no binding (tested: 1 μg/ml)"}, {"measurement": "binding result", "setting": "[9]", "result": "no binding (tested: 1 μg/ml)"}, {"measurement": "binding result", "setting": "[10]", "result": "no binding (tested: 1 μg/ml)"}, {"measurement": "binding result", "setting": "[11]", "result": "no binding (tested: 1 μg/ml)"}, {"measurement": "binding result", "setting": "[12]", "result": "binds"}]}
{"binder": "B3", "values": [{"measurement": "binding result", "setting": "D4-LR immunotoxin", "result": "binds"}]}
{"binder": "B4", "values": [{"measurement": "binding result", "setting": "D4-IgG4H-CD8TM CAR", "result": "binds"}, {"measurement": "binding result", "setting": "D4-CD8H-CD28TM CAR", "result": "binds"}, {"measurement": "binding result", "setting": "D4-IgG4H-CD28TM CAR", "result": "binds"}, {"measurement": "binding result", "setting": "D4-CD8H-CD8TM CAR", "result": "binds"}]}
{"binder": "B5", "values": [{"measurement": "binding result", "setting": "[13]", "result": "binds"}]}
